Tests used:
[1] = target: PGT145 (human IgG1), as the ligand of CD16; test: flow cytometry on cells; conditions: read off a plot; for other: Binding (AUC): area under the PGT145 staining curve, parent: est. 12000; for response: parent: est. 540
[2] = target: soluble SIVmac239 Env SOSIP.664 trimer, wild type (SIVmac239); test: cryo-EM 2-D class averages; SIVmac239 Env trimers affinity purified with PGT145, ~6 mg/ml diluted 3:1 into n-dodecyl-beta-D-maltoside, plunge frozen; ~62,000 particles

| Substance | other: Binding (AUC) [1] | response [1] | stoichiometry N [2] |
| --- | --- | --- | --- |
| SIVmac239 Env WT K179S | 46000 | 1500 gMFI | – |
| SIVmac239 Env WT K180S | 260000 | 6600 gMFI | – |
| SIVmac239 Env WT K181S | 11000 | 450 gMFI | – |
| SIVmac239 Env WT N171Q | 740 | 220 gMFI | – |
| SIVmac239 Env WT R177A | 1300 | 180 gMFI | – |
| soluble SIVmac239 Env SOSIP.664 trimer, wild type (complex) | – | – | 3 |

Source: publication PMC6606807
